According to patent CN101223191A (AGENSYS INC, dated 2008):
Several values for one entry are separate records, joined by “and”; a condition that tells them apart may be missing. Equal entries are not always repeated.

Assays:
[1] = target: T1, human PSCA (prostate stem cell antigen, PSCA v.1) (human, UniProt O43653 12-83); test: FACS-based affinity on cell-surface PSCA (LAPC9AI cells)
T1 construct: The whole entry is named; also called PSCA变体1; 细胞表面PSCA
T1 sequence: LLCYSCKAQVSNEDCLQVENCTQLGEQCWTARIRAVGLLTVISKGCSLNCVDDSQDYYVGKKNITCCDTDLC

[2] = target: T1, human PSCA (prostate stem cell antigen, …); test: FACS saturation binding on LAPC9AI cells, one-site binding (hyperbola) fit, Graphpad Prism

Kd [1]: 0.6 nM | Kd [2]: 0.593 nM and 0.636 nM
B1: anti-PSCA MAb H1-1.10 (antibody, V domains shown)
VH: QLQESGPGLVKPSQTLSLTCTVSGGSISSGGYYWSWIRQHPGKGLEWIGYIYYSGSTYYNPSLKSRVTISVDTSKNQFSLKLSSGTAADTAVYYCARDHITMVRGVPKGMDVWGQGTTVTVSS
VL: QLTQSPSSLSASVGDRVTITCRASQSISRHLNWYQQKPGKAPKFLIYVASSLQSGVPSRFSGSGSGTDFTLTISSLQPEDFATYFCQQSYSIPRTFGQGTKVEIKR
notes: Fully human IgG1 (gamma 1) / kappa antibody from XenoMouse immunised with B300.19/PSCA cells; tested as hybridoma supernatant or purified antibody; also called PSCA H1-1.10; H1/1.10.1.1
